Measured values taken from patent publication US12576154B2, “Conjugates of PSMA-binding moieties with cytotoxic agents” (PHILOCHEM AG, priority 2022, dated 2026).

Columns and labels:
HT1080.hPSMA xenografts [1] = assay: Payload study and combination therapy with L19-IL2 in HT1080.hPSMA tumor model (tumor volume); type: in vivo, mice; settings: conjugates 250 nmol/kg i.v. days 7 and 11; L19-IL2 2.5 mg/kg i.v. days 8, 10, 12; n=3/4
Procedure: (§1) HT1080.hPSMA tumor cells were grown to 90% confluence and detached with Trypsin-EDTA 0.05%. Cells were resuspended in Hank's Balanced Salt Solution (HBSS) at a 5×10^7 cells/mL density. 100 μL of HT1080.hPSMA cells (5×10^6 cells) were injected subcutaneously in the right flank of female athymic Balb/c AnNRj-Foxn1 mice (6 to 8 weeks of age). Tumors were grown until an average volumes of ˜100 mm^3 was reached.
Tumor-bearing mice were randomized into groups of 3 or 4 animals. A 50 μM solution (2% DMSO, 250 nmol/kg; 100 μL) of Conjugate 1, 5, or 6, L19-IL2 (SEQ ID NO: 10, 0.5 mg/mL, 2.5 mg/kg; 100 μL), PBS (100 μL), or L19-IL2 buffer (NaH2PO4 6.7 mM, NaCl 20 mM, KCl 1.8 mM, Mannitol 133 mM, Tween80 0.1% v/v, Glycerol 1% w/v; 100 μL) was injected intravenously (i.e., systemic administration through tail-vein) with the following schedule:
Groups of Conjugates 1, 5, or 6: two separate injections with a 3-day break in between (day 7 and day 11 after tumor implantation).
L19-IL2 group: three separate injections with a 1-day break in between (day 8, day 10, and day 12 after tumor implantation).
Combination therapy groups: two separate injections of Conjugate 1, 5, or 6 with a 3-day break in between (day 7 and day 11 after tumor implantation) and three separate injections of L19-IL2 with a 1-day break in between (day 8, day 10, and day 12 after tumor implantation). […]

HT1080.hPSMA tumor = assay: MMAE release from conjugates in HT1080.hPSMA tumor model (comparison and timepoint study); type: in vivo, mice; settings: 250 nmol/kg; for MMAE release compared with Conjugate 1: 24 h after intravenous injection, HT1080.hPSMA tumor model
Procedure: HT1080.hPSMA tumor cells were grown to 90% confluence and detached with Trypsin-EDTA 0.05%. Cells were resuspended in Hank's Balanced Salt Solution (HBSS) at a density of 5×10^7 cells/mL. 100 μL of HT1080.hPSMA cells (5×10^6 cells) were injected subcutaneously in the right flank of female athymic Balb/c AnNRj-Foxn1 mice (6 to 8 weeks of age). Tumors were grown until ˜250 mm^3 volume (average).
Comparison study: 0.1 mL of 50 μM solutions (2% DMSO, PBS, 250 nmol/kg) of the four conjugates (1 to 4) were injected intravenously. The animals were sacrificed in groups of 3 after 24 h, and blood and the following organs were extracted: HT1080.hPSMA tumor, heart, lungs, liver, kidney, spleen, stomach. The blood fraction was centrifuged, and the plasma (supernatant) was extracted. The organs were stored at −80° C. before being used for further analysis.
Timepoint study: 0.1 mL of a 50 μM solution (2% DMSO, PBS, 250 nmol/kg) of conjugate 1 was injected intravenously into the tail vein of the mice. The animals were sacrificed in groups of 3 after 6 h, 24 h, 48 h, and 72 h, and blood and the following organs were extracted: HT1080.hPSMA tumor, heart, lungs, liver, kidney, spleen, stomach. The blood fraction was centrifuged, and the plasma (supernatant) was extracted. The organs were stored at −80° C. before being used for further analysis.
Frozen plasma (50 μL) and mouse tissues (˜50 mg) were thawed, and 500 μL of PBS was added. Samples were kept on ice, and 50 μL solution of internal standard (d8-MMAE, 50 nM) was added. Samples were then homogenized at 4° C. with a tissue lyser for 2 minutes at 30 Hz for 4 cycles. After homogenization, samples were centrifuged (21'000 g, 10 min). Subsequently, 100 μL of supernatants were collected and added to 900 μL of acetonitrile (ACN) to induce protein precipitation. After centrifugation (21'000 g, 10 min), 800 μL of supernatants were collected and dried at room temperature with a vacuum centrifuge. Pellets were then resuspended in 20 μL of an aqueous solution containing 3% ACN and 0.1% of HCOOH, and 5 μL were injected into the UHPLC-MS system. Chromatographic separation was carried out on a Hypersil Gold C18 column (100 mm×2.1 mm, 1.9 μm particle size, 175 Å pore size) column temperature was set at 50° C. and a flow rate of 700 μL/min with a gradient program from 95% A (water+0.1% HCOOH), 5% B (ACN+0.1% HCOOH) to 35% of A in 2.5 minutes, from 35% A to 5% A in 0.4 minutes and 5% A was kept for 1.3 minutes before reconditioning at 95% A. The LC system was coupled to a Q-Exactive mass spectrometer via an Ion Max HESI Source. Ionization was carried out with a spray voltage of 3.5 kV; Sheath gas 40 units; Aux gas 10 units; capillary temperature of 380° C.; Aux gas temperature 450° C.; S-lens RF level 60. The mass spectrometer was operating in targeted Single Ion Monitoring mode (t-SIM) following the molecular ion 718.5113 m/z. The detector was working in positive ionization mode with the following parameters: resolution 70'000 (FWHM at 200 m/z); AGC target of 5×10^4; maximum injection time of 200 ms; isolation window 14 m/z; isolation offset 5 m/z. Peak areas of analytes and internal standards were integrated, and corresponding ratios were calculated. The ratios were then transformed into pmol/g of wet tissue using single-concentration external calibration points and corrected by the total weight of the sample analysed. The percentage of injected dose per gram (% ID/g) was finally calculated by normalizing the value based on the total dose injected into the mouse. Data analysis was performed with Skyline v22.2.0.351.

LNCaP tumor (PSMA+) = assay: MMAE release from conjugates in LNCaP tumor model (biodistribution by LC-MS); type: in vivo, mice; settings: 24 h after intravenous injection, LNCaP tumor model, n=3
Procedure: LNCaP tumor cells were grown to 80% confluence and detached with Trypsin-EDTA 0.05%. Cells were resuspended in PBS at a density of 30×10^6 cells/mL. The cell suspension was further diluted 1:1 with Matrigel. 200 μL of LNCaP cells (3×10^6 cells) were injected subcutaneously in the left flank of female athymic Balb/c AnNRj-Foxn1 mice (6 to 8 weeks of age). Tumors were grown until volumes of 200-300 mm^3 were observed.
0.1 ml of 50 μM solutions (2% DMSO, PBS) of the four Conjugates (1-4) were injected intravenously into 4 of the mice (1 mouse per SMDC). The animals were sacrificed after 24 h and the following organs were extracted: blood, LNCaP tumor (PSMA+), heart, lungs, liver, kidney, spleen, stomach. The blood fraction was centrifuged, and the plasma (supernatant) was extracted. The organs were preserved at −80° C. before being used for further analysis.
Frozen plasma or mouse tissues (˜50 mg) were thawed and treated with 600 μL of an aqueous solution containing 95% acetonitrile (ACN), and 0.1% HCOOH were added to induce protein precipitation. 50 μL of a solution of d8-MMAE, 50 nM) was added as internal standard. Samples were then homogenized with a tissue lyser for 15 minutes at 30 Hz. After homogenization, samples were centrifuged (21'000 g for 10 minutes). The supernatant was collected and dried at room temperature with a rotary evaporator. Pellets were then resuspended in 1 mL of an aqueous solution containing 3% ACN and 0.1% of TFA and subsequently purified on Oasis HLB SPE columns. Eluates were dried under vacuum at room temperature. […] Peak areas of analytes and internal standards were integrated, and corresponding ratios were calculated. The ratios were then transformed into pmol/g of wet tissue using single-concentration external calibration points and corrected by the total weight of the sample analysed. The percentage of injected dose per gram (% ID/g) was finally calculated by normalizing the value based on the total dose injected into the mouse. […]

HT1080.hPSMA xenografts [2] = assay: Comparative therapy experiment in mice bearing HT1080.hPSMA xenografts (tumor volume); type: in vivo; settings: 250 nmol/kg i.v. on days 8, 10, 12 after tumor implantation, n=5
Procedure: as §1, with “until” for “until an average”, “[…].” for “˜100 mm^3 was reached.”
Tumor-bearing mice were randomized into groups of 5 and 0.1 mL of 50 μM solutions (2% DMSO, PBS, 250 nmol/kg) of the four conjugates (1 to 4), or saline solution (0.9% NaCl) was injected intravenously three times with 1-day break in between (days 8, 10, and 12 after tumor implantation).

Row | Compound | In vivo anti-tumor activity, monotherapy (tumor volume) (HT1080.hPSMA xenografts [1]) | MMAE release compared with Conjugate 1 (HT1080.hPSMA tumor) | MMAE release in tumor (HT1080.hPSMA tumor; 24 hours after intravenous injection, HT1080.hPSMA tumor, n=3) [% ID/g] | MMAE release, experiment repeated with three mice each (LNCaP tumor (PSMA+)) | Therapeutic efficacy (tumor volume change) (HT1080.hPSMA xenografts [2])
1 | L19-IL2: Immunocytokine: L19-derived scFv (binds ED-B domain of fibronectin) linked to IL2, SEQ ID NO: 10 [Conjugate L19-IL2] | only a slight tumor growth retardation |  |  |  | 
2 | CC[C@H](C)[C@@H]([C@@H](CC(=O)N1CCC[C@H]1[C@H](OC)[C@@H](C)C(=O)N[C@H](C)[C@@H](O)c1ccccc1)OC)N(C)C(=O)[C@@H](NC(=O)[C@H](C(C)C)N(C)C(=O)OCc1ccc(NC(=O)[C@H](CCCNC(N)=O)NC(=O)[C@@H](NC(=O)CCCCCN2C(=O)CC(SC[C@H](N)C(=O)NCCCCCC(=O)NC[C@H]3CC[C@H](C(=O)N[C@@H](Cc4ccc5ccccc5c4)C(=O)NCCCC[C@H](NC(=O)N[C@@H](CCC(=O)O)C(=O)O)C(=O)O)CC3)C2=O)C(C)C)cc1)C(C)C (stereo partly drawn) [Conjugate 2] |  | significantly lower or no release of MMAE | 1.7 | confirmed | tumor growth retardation but did not lead to shrinkage of the tumor mass
3 | CC[C@H](C)[C@@H]([C@@H](CC(=O)N1CCC[C@H]1[C@H](OC)[C@@H](C)C(=O)N[C@H](C)[C@@H](O)c1ccccc1)OC)N(C)C(=O)[C@@H](NC(=O)[C@H](C(C)C)N(C)C(=O)CCCCCN1C(=O)CC(SC[C@H](N)C(=O)NCCCCCC(=O)NC[C@H]2CC[C@H](C(=O)N[C@@H](Cc3ccc4ccccc4c3)C(=O)NCCCC[C@H](NC(=O)N[C@@H](CCC(=O)O)C(=O)O)C(=O)O)CC2)C1=O)C(C)C (stereo partly drawn) [Conjugate 4] |  | significantly lower or no release of MMAE |  |  | didn't display any therapeutic efficacy
4 | CC[C@H](C)[C@@H]([C@@H](CC(=O)N1CCC[C@H]1[C@H](OC)[C@@H](C)C(=O)N[C@H](C)[C@@H](O)c1ccccc1)OC)N(C)C(=O)[C@@H](NC(=O)[C@H](C(C)C)N(C)C(=O)OCCSSC[C@H](N)C(=O)NCCCCCC(=O)NC[C@H]1CC[C@H](C(=O)N[C@@H](Cc2ccc3ccccc3c2)C(=O)NCCCC[C@H](NC(=O)N[C@@H](CCC(=O)O)C(=O)O)C(=O)O)CC1)C(C)C [Conjugate 3] |  | significantly lower or no release of MMAE |  |  | didn't display any therapeutic efficacy
